This passage reports Kd results from publication doi:10.1101/2023.07.24.550319.

This assay deals with PP1c^1-293 (potato Protein Phosphatase 1-c isoform-3) (potato). The assay is described as follows: ITC. Background: In ITC the heat of successive injections is recorded.

B1: Pi04314 WY-only (domain or fragment)
chain: DLLGLFAKSKLKKMMKSESFKLKRFGEWDDFTVGYIREKLKNKYPDLLLNYLNVYKKAGNEIVR
For orientation: Kd means the constant that tells how readily two partners part at equilibrium. A higher Kd goes with a looser complex. Consider B1, for which the Kd turned out to be 12.2 µM.
